Legend:
[1] = molecular target: SARS-CoV-2 spike S1 antigen (SARS-CoV-2) (UniProt P0DTC2); assay: ELISA, coated S1
[2] = molecular target: SARS-CoV-2 spike receptor binding domain (RBD) antigen (SARS-CoV-2) (UniProt P0DTC2); assay: ELISA, coated RBD
[3] = molecular target: SARS-CoV-2 spike on GFP reporter pseudotype virus (Integral Molecular) (SARS-CoV-2) (UniProt P0DTC2); assay: cell-based or functional assay
[4] = molecular target: SARS CoV-2 Spike RBD protein of the Spike:ACE2 blocking ELISA (BPS Bioscience) (SARS-CoV-2) (UniProt P0DTC2); assay: competition ELISA: RBD coated, test article, then ACE2-His (competitor)
SARS CoV RBD (SARS-CoV) = SARS CoV RBD (SARS-CoV) (UniProt P59594); assay: ELISA, antigen coated at 2 ug/mL

| Substance | EC50 [1] [mg/L] | EC50 [2] [mg/L] | CoV-2 pseudotype neutralization IC50 [3] [mg/L] | IC50 [4] [mg/L] | EC50 (SARS CoV RBD (SARS-CoV)) [mg/L] |
| --- | --- | --- | --- | --- | --- |
| SARS CoV mAb [CR3022] (Absolute Antibody) | 0.078 | 0.088 | 100 |  |  |
| SARS CoV-2 mAb [SAD-S35] (Acro Biosystems) (antibody) | 0.058 | 0.057 | 0.26 | 1.1 |  |
| rCIG (recombinant coronavirus-2 immune globulin; recombinant anti-coronavirus 19 hyperimmune gammaglobulin) | 0.092 | 0.1 | 0.43 | 2.2 | 0.6 |

From patent publication US12404607
